Measurements reported in US20230050449A1, “METHODS FOR TREATING CANCER USING A COMBINATION OF A PD-1 ANTAGONIST, AN ILT4 ANTAGONIST, AND CHEMOTHERAPEUTIC AGENTS” (Merck Sharp & Dohme LLC, priority 2019, published 2023).

Test system: participants with advanced solid tumors
Assay: Phase 1 open label, multi-arm, multi-center study of MK-4830 as monotherapy or in combination with pembrolizumab (NCT03564691): safety and tolerability
Assay type: in vivo, human
Description: A phase 1 open label, multi-arm, multi-center study of an anti-ILT4 antibody (“MK-4830”) as monotherapy or in combination with pembrolizumab for participants with advanced solid tumors has been ongoing (NCT03564691).
At the time of the May 10, 2019 data cutoff, a total of 51 participants had received at least 1 dose of MK-4830. In the ongoing MK-4830 monotherapy phase, MK-4830 monotherapy had reached the maximum planned dose level of 1600 mg. In the ongoing MK-4830 plus pembrolizumab combination phase, MK-4830 dose level had reached a maximum dose of 800 mg.
The target dose limiting toxicity (DLT) rate was not reached in any of the cohorts and the maximum tolerated dose (MTD) was not defined.
The most common study-drug related AEs in all participants were arthralgia (9.8%), fatigue (9.8%), decreased appetite (7.8%), diarrhea (7.8%), and pruritus (7.8%). There was one episode of transient Grade 3 blood pressure increase at the 1600 mg dose level in the MK-4830 monotherapy cohort. There were no Grade 4 or 5 drug-related AEs or SAEs.

[1] = of the total 51 treated participants, preliminary data

MK-4830: anti-ILT4 antibody; light chain SEQ ID NO:5, heavy chain SEQ ID NO:10 (Table 4)
episodes of transient Grade 3 blood pressure increase (1600 mg dose level, MK-4830 monotherapy cohort): one episode
grade of the majority of drug-related AEs (51 treated participants, preliminary data): Grade 1
Grade 4 or 5 drug-related AEs or SAEs (all 51 treated participants): no
study-drug related AE: arthralgia (all participants (51 treated)): 9.8%
study-drug related AE: decreased appetite (all participants (51 treated)): 7.8%
study-drug related AE: diarrhea (all participants (51 treated)): 7.8%
study-drug related AE: fatigue (all participants (51 treated)): 9.8%
study-drug related AE: pruritus (all participants (51 treated)): 7.8%
target dose limiting toxicity (DLT) rate (any of the cohorts, monotherapy up to 1600 mg, combination with pembrolizumab up to 800 mg, May 10, 2019 data cutoff): not reached
maximum tolerated dose (MTD) (monotherapy up to 1600 mg, combination with pembrolizumab up to 800 mg, May 10, 2019 data cutoff): not defined
participants with one or more drug-related AEs (number) [1]: 26
participants with one or more drug-related AEs (percent) [1]: 51%
